From patent publication US20150125397A1, “DUAL SPECIFIC BINDING PROTEINS DIRECTED AGAINST IMMUNE CELL RECEPTORS AND AUTOANTIGENS” (ABBVIE INC., priority 2013, published 2015)

B1: DVD3766: DVD-Ig: VD1 hIgM (HB-57.3), GS linker, VD2 DNA (PA4); heavy SEQ ID NO 76, light 77 (antibody)
heavy: QVQLQQPGAEFVKPGAPVKLSCKASGYPFTTYWVNWMKQRPGRGLEWIGRIDPYDSETLYNQKFKDKATLTVDKSSSTAYIQLSSLTSEDSAVYYCARETYDYPFAYWGQGTLVTVSSGGGGSGGGGSEVQLVESGGGLVKPGGSLKLSCVASGFTFSTYAMSWVRQTPTKRLEWVATISRGGVSTYYPDTVKGRFTISRDNAKNTLYLQMSSLRSEDTAMYYCARPPTIVTTWFAYWGQGTLVTVSS
light: DIVMTQSPSSLAMSVGQKVTMSCKSSQSLLNSSNQKNYLAWYQQKPGQSPELLVYFASTRESGVPDRFIGSGSGTDFTLTISSVQAEDLADYFCQQHYSTPFTFGSETKLEIKRGGSGGGGSGDVVMTQTPLSLPVSLGDQASISCRSSQSLVHSNGNTYLHWYLQKPGQSPKLLIYKVSNRFSGVPDRFSGSGSGTDFTLKISRVEAEDLGAYFCSQSTHVPYTFGGPTRLEIKR
B2: DVD3767: DVD-Ig: VD1 hIgM (HB-57.3), SS linker, VD2 DNA (PA4); heavy SEQ ID NO 78, light 79 (antibody)
heavy: QVQLQQPGAEFVKPGAPVKLSCKASGYPFTTYWVNWMKQRPGRGLEWIGRIDPYDSETLYNQKFKDKATLTVDKSSSTAYIQLSSLTSEDSAVYYCARETYDYPFAYWGQGTLVTVSSASTKGPEVQLVESGGGLVKPGGSLKLSCVASGFTFSTYAMSWVRQTPTKRLEWVATISRGGVSTYYPDTVKGRFTISRDNAKNTLYLQMSSLRSEDTAMYYCARPPTIVTTWFAYWGQGTLVTVSS
light: DIVMTQSPSSLAMSVGQKVTMSCKSSQSLLNSSNQKNYLAWYQQKPGQSPELLVYFASTRESGVPDRFIGSGSGTDFTLTISSVQAEDLADYFCQQHYSTPFTFGSETKLEIKRTVAAPDVVMTQTPLSLPVSLGDQASISCRSSQSLVHSNGNTYLHWYLQKPGQSPKLLIYKVSNRFSGVPDRFSGSGSGTDFTLKISRVEAEDLGAYFCSQSTHVPYTFGGPTRLEIKR
B3: DVD3769: DVD-Ig: VD1 hIgM (HB-57.3), SL linker, VD2 DNA (PA4); heavy SEQ ID NO 80, light 81 (antibody)
heavy: B2 heavy
light: DIVMTQSPSSLAMSVGQKVTMSCKSSQSLLNSSNQKNYLAWYQQKPGQSPELLVYFASTRESGVPDRFIGSGSGTDFTLTISSVQAEDLADYFCQQHYSTPFTFGSETKLEIKRTVAAPSVFIFPPDVVMTQTPLSLPVSLGDQASISCRSSQSLVHSNGNTYLHWYLQKPGQSPKLLIYKVSNRFSGVPDRFSGSGSGTDFTLKISRVEAEDLGAYFCSQSTHVPYTFGGPTRLEIKR

These molecules were tested against Human IgM (Homo sapiens, UniProt P01871) (assay: IgM binding assay (human IgM)).
Chain of Human IgM (P01871 1-433 limits assumed): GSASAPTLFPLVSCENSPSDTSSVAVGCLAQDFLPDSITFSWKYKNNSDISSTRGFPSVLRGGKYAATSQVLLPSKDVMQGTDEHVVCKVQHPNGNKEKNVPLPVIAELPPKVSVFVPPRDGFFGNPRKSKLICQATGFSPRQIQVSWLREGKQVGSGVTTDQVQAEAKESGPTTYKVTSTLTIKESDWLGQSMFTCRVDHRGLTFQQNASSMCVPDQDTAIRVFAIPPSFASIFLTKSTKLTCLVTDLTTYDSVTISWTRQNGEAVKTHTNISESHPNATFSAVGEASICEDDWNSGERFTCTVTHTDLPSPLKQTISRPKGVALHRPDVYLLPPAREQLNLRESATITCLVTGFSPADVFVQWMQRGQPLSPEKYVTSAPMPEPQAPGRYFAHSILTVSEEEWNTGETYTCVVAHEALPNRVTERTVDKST
Chain of Human IgM (P01591 23-159 partner): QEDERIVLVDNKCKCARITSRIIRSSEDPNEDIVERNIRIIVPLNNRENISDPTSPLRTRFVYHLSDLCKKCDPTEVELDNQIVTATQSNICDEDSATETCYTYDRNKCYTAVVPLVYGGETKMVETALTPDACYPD

Potency in human IgM binding assay, highest potency:
B1
B2
B3
